Our source for the Kd values is paper PMC10611751 (2023).

The chains are these.
B1: E-cadherin residues 828-842 (site-2) [mouse] / Ankyrin-G 24 ANK repeats (residues 38-855) [not stated] (parent complex)
chain 1: PYDSLLVFDYEGSGS
chain 2: KSDANASYLRAARAGHLEKALDYIKNGVDVNICNQNGLNALHLASKEGHVEVVSELLQREANVDAATKKGNTALHIASLAGQAEVVKVLVTNGANVNAQSQNGFTPLYMAAQENHLEVVRFLLDNGASQSLATEDGFTPLAVALQQGHDQVVSLLLENDTKGKVRLPALHIAARKDDTKAAALLLQNDTNADIESKMVVNRATESGFTPLHIAAHYGNINVATLLLNRAAAVDFTARNDITPLHVASKRGNANMVKLLLDRGAKIDAKTRDGLTPLHCGARSGHEQVVEMLLDRAAPILSKTKNGLSPLHMATQGDHLNCVQLLLQHNVPVDDVTNDYLTALHVAAHCGHYKVAKVLLDKKANPNAKALNGFTPLHIACKKNRIRVMELLLKHGASIQAVTESGLTPIHVAAFMGHVNIVSQLMHHGASPNTTNVRGETALHMAARSGQAEVVRYLVQDGAQVEAKAKDDQTPLHISARLGKADIVQQLLQQGASPNAATTSGYTPLHLSAREGHEDVAAFLLDHGASLSITTKKGFTPLHVAAKYGKLEVASLLLQKSASPDAAGKSGLTPLHVAAHYDNQKVALLLLDQGASPHAAAKNGYTPLHIAAKKNQMDIATSLLEYGADANAVTRQGIASVHLAAQEGHVDMVSLLLSRNANVNLSNKSGLTPLHLAAQEDRVNVAEVLVNQGAHVDAQTKMGYTPLHVGCHYGNIKIVNFLLQHSAKVNAKTKNGYTPLHQAAQQGHTHIINVLLQNNASPNELTVNGNTALAIARRLGYISVVDTLKVVTEEIMTTTTITEKHKMNVPETMNEVLDMS
B2: E-cadherin residues 854-869 (site-3) [mouse] / Ankyrin-G 24 ANK repeats (residues 38-855) [not stated] (parent complex)
chain 1: ESDQDQDYDYLNEWGN
chain 2: B1 chain 2
B3: E-cadherin residues 755-770 (site-1) [mouse] / Ankyrin-G 24 ANK repeats (residues 38-855) [not stated] (parent complex)
chain 1: YYYDEEGGGEEDQDFD
chain 2: B1 chain 2

In the first test the parent is B1. Briefly: ITC; parent: 1.9e+03 nM. On the technique in general: In ITC the heat of successive injections is recorded.
On to chain 1 Y10A, for which the Kd was determined as 9.5 µM.

As for chain 1 Y2A, the dissociation constant (Kd) amounted to 1.7 µM.

The variants in a further test derive from B2. Briefly: ITC; parent: 1.8e+03 nM.
Regarding chain 1 Y8A, the equilibrium dissociation constant (Kd) is 3.2 µM.

For chain 1 W14A, the Kd turned out to be 3.9 µM.

chain 1 Y10A: the Kd came to 3.9 µM.

In the case of chain 1 Y8A, chain 1 Y10A, the Kd was found to be 5.8 µM.

The variants in the next test derive from B3. In words: ITC; parent: 900 nM.
As for chain 1 Y3A, the Kd was 2.2 µM.

As to chain 1 Y2A, the equilibrium dissociation constant (Kd) stood at 2.2 µM.

As to chain 1 Y2A, chain 1 Y3A, the dissociation constant Kd was found to be 7.1 µM.

For the variant chain 1 Y1A, chain 1 Y2A, the Kd worked out at 4.2 µM.

Regarding chain 1 Y1A, chain 1 Y3A, the Kd was 4.1 µM.

For chain 1 Y1A, the Kd was determined as 5 µM.

The term Kd denotes a measure of binding affinity in units of concentration.
